Stoichiometry N and stoichiometry N (MNT^Lpg per HEPN^Lpg chain (1:4)) data for two substances are collected here from article PMC11586414.

Where “and” joins values, the source holds several entries; their conditions need not be identical. Equal values may be shown once.

In assay [1] the target is HEPN^Lpg WT (HEPN toxin of the Legionella pneumophila HEPN–MNT module) (Legionella pneumophila Philadelphia 1) (UniProt Q5ZRG2). Description: AUC.
Assay [2] has the same target. Briefly: crystal structure.

On to “HEPN^Lpg WT (HEPN toxin of the Legionella pneumophila HEPN–MNT module) (from UniProt Q5ZRG2 1-139) (natural protein)”, for which the stoichiometry N is 2 and 4 in assay [1]; 4 in assay [2].
Regarding “MNT^Lpg (MNT antitoxin of the Legionella pneumophila HEPN–MNT module) (from UniProt Q5ZRG1 1-108) (enzyme)”, the stoichiometry N (MNT^Lpg per HEPN^Lpg chain (1:4)) in assay [2] was found to be 0.25.

As a reminder, the stoichiometry N is a count of units in the complex or per binding partner.
